Patent US20260092097A1 (published 2026)

Target: T1, p53 peptide on HLA-A*02:01 (human)
T1 peptide: STPPPGTRV
Assay: binding, other

binding result: recognises
B1: c149scTCR (TCR, V domains shown)
Valpha: QKVTQTQTSISVMEKTTVTMDCVYETRDSSYFLFWYKQTASGEIVFLIRQDSYKKENATEGHYSLNFQKPKSSIGLIITATQIEDSAVYFCAMRDTNAYKVIFGKGTHLHVLP
Vbeta: EAAVTQSPRSKVAVTGGKVTLSCHQTNNHDYMYWYRQDTGHGLRLIHYSYVADSTEKGDIPDGYKASRPSQENFSLILELASLSQTAVYFCASSPHSYEQYFGPGTRLTVL
